Results from the supplement of paper PMC9170038.

Test system: MS2 coat protein
Experiment: apparent KD of MS2 coat protein; designed switch direction (-1 OFF switch, 1 ON switch): -1; higher = weaker reporter binding
Summary of the method: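 Three titration conditions were used: no input, 200 uM small-molecule ligand, and an oligonucleotide input. In each, SNAP-549-labelled MS2 coat protein was raised from 0.7 or 1.5 nM, doubling, to 3 µM over designed RNA switches transcribed on Illumina chips by stalled E. coli RNA polymerase. Curve fits of normalised cluster fluorescence gave values whose per-design median over clusters is the apparent KD.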

[1] = input ligand: microRNA oligo, concentration not stated
[2] = Eterna round: R95, input ligand: microRNA oligo, concentration not stated
[3] = Eterna round: R95, input ligand: FMN 200 uM
[4] = Eterna round: R95, input ligand: none

Row | Sequence | apparent KD of MS2 coat protein (input ligand: FMN 200 uM) | apparent KD of MS2 coat protein (input ligand: none) | further results
1 | UGAGUGCUGCGAGGAUAUACAUGAGGAUCACCCAUGUGGAUCUGUGAGGCUUUGCCUCACAGGAUGUAGAAGGCGCAGUACUCU [JL ENG2 1.19] (Eterna round: R96, puzzle: Exclusion NG 2) | 0.156 µM | 0.0274 µM | apparent KD of MS2 coat protein [1]: 0.0178 µM
2 | GAUCAACAUGAGGAUCACCCAUGUGAGGAUAUGAUACUAUGUACUUCGGUACAUAGUAUCAGAAGGCAUAUUGA [Ex1-3: 41] (puzzle: Exclusion 1) | – | – | apparent KD of MS2 coat protein [2]: 0.0507 µM
3 | GUCCUGGAAUAUCAGUCGCACAUGAGGAUCACCCAUGUCAUGGGUAGAUCAAUAAAUAAAGAUACUGCUCGUCUUAU [Cac sensor turnoff var1 sub3] (Eterna round: R97, puzzle: Sensor, turn-off variant 1) | 0.186 µM | 0.409 µM | –
4 | GUCAGCUCGUGAGGAUAUACAUGAGGAUCACCCAUGUGAUCAAUAGCAGCUUCGGCUGCAUUAAUGUAGAAGGCACGAGCUGAU [ENG2/5-A2] (Eterna round: R96, puzzle: Exclusion NG 2) | 0.0101 µM | 0.203 µM | apparent KD of MS2 coat protein [1]: 0.166 µM
5 | UAUUAGCAAGCAACUGGGUACAUGAGGAUCACCCAUGUGCUCGUCUUAUAAGGUACUGUGACGAAAUUCACGGUACC [mod--Eli13] (Eterna round: R97, puzzle: Sensor, turn-off variant 1) | 0.0211 µM | 0.0186 µM | –
6 | GAUAGACAUGAGGAUCACCCAUGUGAGGAUAUGCGUACGUUGUCAGUAGGCGACGUGCGCAGAAGGCGCAAGUU [Mat - Mod of JL D91] (puzzle: Exclusion 1) | – | – | apparent KD of MS2 coat protein [2]: 0.0618 µM
7 | UACACCACAUGAGGAUCAAACAUGAGGAUCACCCAUGUAUAGCAAGCUUUUUGCUCGUCUUAUAAAUAUGUGGUGUA [Electric Eye 6 - Jieux - Sensor, turn-off variant 1] (Eterna round: R97, puzzle: Sensor, turn-off variant 1) | 0.0149 µM | 0.0149 µM | –
8 | GAAAACGUAGGAUAUUAAUACUUAUACAUGAGGAUCACCCAUGUUUGGUGGGUCAAAGAAUGAGAAGGGCGAUGAA [EX5 #10] (Eterna round: R97, puzzle: Exclusion 5) | 0.261 µM | 0.376 µM | –
9 | AAGAAACAUGAGGAUCACCCAUGUGAGGAUAUGAGGAAGAAAAGAAAAGAAAGAAGACUCAGAAGGCACAAAGG [salish99-ex1_r3_073] (puzzle: Exclusion 1) | – | – | apparent KD of MS2 coat protein [3]: 0.189 µM; apparent KD of MS2 coat protein [2]: 0.049 µM; apparent KD of MS2 coat protein [4]: 0.0768 µM
10 | CUUUUGUGAGGAUAUUAGUAGUAAAUAAAUAAAAUUACUACUGAGAAGGCACAUGAGGAUCACCCAUGUUCUUC [salish99_ex4_r3_066] (puzzle: Exclusion 4) | – | – | apparent KD of MS2 coat protein [2]: 0.0188 µM
11 | AGUAGGUCUACCUUGGUGGAUCUGCAUUUAGGCAGGUGUACAUGAGGAUCACCCAUGUCCUCAUUUGCUCGUCUUAU [JL turnoff v2 99.29] (puzzle: Sensor v3, turn-off variant 2) | – | – | apparent KD of MS2 coat protein [3]: 0.807 µM; apparent KD of MS2 coat protein [2]: 0.488 µM; apparent KD of MS2 coat protein [4]: 0.952 µM
12 | UUCCCACAUGAGGAUCACCCAUGUGAGGAUAUGGAGCGCGACCGCGCGGUCGCGUACACCAGAAGGCGCAUGAU [1st #80] (Eterna round: R97, puzzle: Exclusion 1) | 0.021 µM | 0.0162 µM | –
13 | CUCAUGUGAGGAUAUCAGUAGUAAAAAAAUAAAAUUACUACUGAGAAGGCACAUGAGGAUCACCCAUGUGUCUU [EX4 331: Super Stable 31] (Eterna round: R96, puzzle: Exclusion 4) | – | – | apparent KD of MS2 coat protein [1]: 0.0133 µM
14 | AAACAGGAAGGAUAUACAUUAUCGGAUCUUCUGGCAAUGCCACAUGAGGAUCACCCAUGUAGAAGGUCCAAAUU [Isenona] (puzzle: Exclusion 2) | – | – | apparent KD of MS2 coat protein [2]: 0.0127 µM
15 | AUGGAGGUAGUCAGGAUAUCGGGCGCUCGGGCGUACGAGAAGGGACAUGAGGAUCACCCAUGUCGCUCAUUCCA [BmEX4 C.2] (Eterna round: R97, puzzle: Brourd's mod of Exclusion 4) | 0.0246 µM | 0.0234 µM | –
16 | CUAUCUAGAGGAUAUACGAGAUCGAAAGAUCGGCGAUCCCUACAUGAGGAUCACCCAUGUAGAAGGCUAGAUAG [Mod 16 - Jieux - Exclusion 2] (Eterna round: R97, puzzle: Exclusion 2) | 0.0995 µM | 0.0186 µM | –
17 | GACUCACAUGAGGAUCACCCAUGUUAGGAUAUAACCUCAUCAACAACGAUUUGGGAGGUUAGAAGGGAUGAUGG [Eternabot (L1) Solution 80] (Eterna round: R97, puzzle: Exclusion 1) | 0.11 µM | 0.089 µM | –

Row | Sequence | apparent KD of MS2 coat protein (input ligand: FMN 200 uM) | apparent KD of MS2 coat protein (input ligand: none) | further results
18 | GGUGCGUAUGUGAGGAUAUGCUGGUCCUUGGAUCAGCAGAAGGCACAUGAGGAUCACCCAUGUGGUGUCGUCCC [salish99_Bmod_Ex4_021] (puzzle: Brourd's mod of Exclusion 4) | – | – | apparent KD of MS2 coat protein [2]: 0.241 µM
19 | GUCCCGGAAGGAUAUGCAGAGCACGAUCCCGUUAAAGGGCCACAUGAGGAUCACCCAUGUAGAAGGUCCAGGGC [EX2 B.21] (Eterna round: R97, puzzle: Exclusion 2) | 0.0328 µM | 0.0131 µM | –
20 | UUUUAGUAAGGAUAUGAUUAGAUCUACGAAAGUAGAUCUAAUCAGAAGGUACAUGAGGAUCACCCAUGUAGAUU [Mod of Brourd 3 - Jieux - Exclusion 4] (Eterna round: R97, puzzle: Exclusion 4) | 0.0242 µM | 0.0185 µM | –
21 | GGCAGACAUGAGGAUCACCCAUGUCAGGAUAUGUGGCGAUCGUCGAAAGACGAUAGCCACAGAAGGGACAUGCC [Eli x1 4.20] (Eterna round: R97, puzzle: Exclusion 1) | 0.0407 µM | 0.0224 µM | –
22 | CGAUGACGAGUGAGGAUAUCGUGUUCGAAAGAACGUGAGAAGGCACAUGAGGAUCACCCAUGUGAUCCUCAUCG [Omei Ex4B A26] (Eterna round: R97, puzzle: Brourd's mod of Exclusion 4) | 0.708 µM | 0.0571 µM | –
23 | GGCACACAUGAGGAUCACCCAUGUGAGGAUAUGAGGCGAUCGUCGAUAGACGAUAGCCUUAGAAGGCACAUGCC [Mat - Exclusion 1 - Eli Mod - D11] (Eterna round: R97, puzzle: Exclusion 1) | 0.0452 µM | 0.0212 µM | –
24 | CAAACAAGCGAAAGAUCCCACAUGAGGAUCACCCAUGUGCUCGUCUUAUAAGGUACUGUGACGAUAGUCACGGUACC [Mat - Sensor, turn-off var - Eli Mod - D79] (Eterna round: R97, puzzle: Sensor, turn-off variant 1) | 0.0368 µM | 0.0452 µM | –
25 | UCCUCACAUGAGGAUCACCCAUGUCAGGAUAUCCAGUUGGGCCUCUGUAGAGGCGCCAGGAGAAGGGAUAAGGA [Ceenerso] (Eterna round: R97, puzzle: Exclusion 1) | 0.0359 µM | 0.0223 µM | –
26 | UAGAGACAUGAGGAUCACCCAUGUGAGGAUAUAGAGAAAGAUUGCGAGAGGGAGAGGACUAGAAGGCACAGUGA [JR_Exclu1_Sub033] (puzzle: Exclusion 1) | – | – | apparent KD of MS2 coat protein [3]: 0.0391 µM; apparent KD of MS2 coat protein [2]: 0.0488 µM; apparent KD of MS2 coat protein [4]: 0.0519 µM
27 | UAUGUCUCAGGAGGAUAUCUCCCGGUUGCCGUUAGAGAAGGCUUGAAACAUGAGGAUCACCCAUGUAAAUGGCCCGUCCUCCAA [Atsodibian] (Eterna round: R96, puzzle: Exclusion NG 1) | 0.0154 µM | 0.0147 µM | apparent KD of MS2 coat protein [1]: 0.00977 µM
28 | AAACUGAGGCAAAGCUUUAGUCGUACAUGAGGAUCACCCAUGUAGGAUAUGGUAGGCAAAGCUUACCAGAAGGACAGAGUGAUC [Mat - Exclusion NG 3 - Mod of JL - D57] (Eterna round: R96, puzzle: Exclusion NG 3) | 0.251 µM | 0.344 µM | apparent KD of MS2 coat protein [1]: 0.487 µM
29 | GCGCCAUCGUGAGAUGGCGUAACGACAUGAGGAUCACCCAUGUAGGAUAUCGAUUGCUUUGCAGUCGAGAAGGGCAAGGUAAGU [JL ENG3 3.83] (Eterna round: R96, puzzle: Exclusion NG 3) | – | – | apparent KD of MS2 coat protein [1]: 0.0243 µM
30 | ACGUGGGCCCUUAGUGAACAUGAGGAUCACCCAUGUAACCACAAGGAUAUCUACGCCAGCACGCGAGAGAAGGUGUGAAAUAAU [Maorbetiza] (Eterna round: R96, puzzle: Exclusion NG 3) | 0.132 µM | 0.0448 µM | apparent KD of MS2 coat protein [1]: 0.0354 µM
31 | AAUUAUUGAUGAGGAUAUUGUGGUGAAACACGACAAGAAGGCAUUAUACACAUGAGGAUCACCCAUGUGAGCCUGAUGCAUAUA [Ex NG1 #59] (Eterna round: R96, puzzle: Exclusion NG 1) | – | – | apparent KD of MS2 coat protein [1]: 0.0124 µM
32 | UUUGUUUGCACAGGAUAUUGUUAUUUUUUUUUUCAAGAAGGGUGUACAUGAGGAUCACCCAUGUUAUGGUUUUAUCUUUUACUU [JR_ExcNG1_Sub011] (Eterna round: R96, puzzle: Exclusion NG 1) | 0.764 µM | 1.27 µM | apparent KD of MS2 coat protein [1]: 0.765 µM
33 | GCCUUAUGAGUCAGGAUAUACAAUAAAAUAAUUAAGUAGAAGGGACAUGAGGAUCACCCAUGUACAUUACAUUG [alecazam28] (Eterna round: R97, puzzle: Brourd's mod of Exclusion 4) | 0.0824 µM | 0.0216 µM | –
34 | AAAUAGCAAGUUUGAUCCUACAUGAGGAUCACCCAUGUGUUCGUCUUAUUUGAAGACAACACAAAAGUGUUGUCUUA [Omei Mir OFFv1 B1] (Eterna round: R97, puzzle: Sensor, turn-off variant 1) | 1.1 µM | 1.3 µM | –
